For assay [1], the target named is intracellular microtubules (MTs).
Assay [2] concerns the target MT-binding domain of ensconsin-cyan fluorescent protein-FKBP-rapamycin binding domain (EMTB-CFP-FRB) (Artificial Sequence). The experiment in a line: FRET live-cell imaging in co-transfected HeLa cells, 100 nM rapamycin.
Assay [3] has as its system EMTB-YFP-CIBN-labeled MTs in COS7 cells. Nature of the assay: Blue-light-induced recruitment of Cry2 proteins onto EMTB-YFP-CIBN-labeled MTs and MT disassembly. Particulars: COS7 cells. In kind it is cell-based, African green monkey. The method, then:
The procedures of photostimulation are as follows. COS7 cells were plated on poly(d-lysine)-coated coverslips and cultured in six-well plates (Thermo Scientific) for 48 hr. Before imaging, cells were incubated with SPY650-tubulin (1000-fold dilution; Spirochrome) at 37° C. for 1 hr. Local photostimulation was carried out with a fluorescence microscope (Nikon) equipped with a digital micromirror device, polygon 400 (MIGHTEX), and a 488-nm light source. Cells were illuminated with the blue light (5 sec on/1 sec off; 1.6 nW/µm^2) for the indicated duration. The mCherry and SPY650-tubulin were simultaneously imaged during photostimulation using Nikon element AR software.
The inventors next tried to use an optogenetic system to trigger MT disassembly in a sub-cellular region of interest during a specific period of time. Cryptochrome 2 (Cry2) (SEQ ID NO:14) and CIBN (N-terminal 170 amino acids of CIB1) (SEQ ID NO:15), two blue light-sensitive dimerizing partners, were used in our MT-manipulating system. Cry2, which was tagged with the red fluorescent protein mCherry (mCh—Cry2), was rapidly translocated onto EMTB—YFP—CIBN-labeled MTs only in regions illuminated with light (T½ = 34.6 ± 7.58 sec) and dissociated from MTs to the cytosol when the light was off (T½ = 28.2 ± 4.88 sec; see FIGS. 6A and 6B).
FIGS. 6A and 6B show using light to disassemble MTs in a reversible and location-specific manner. In FIG. 6A, COS7 cells co-transfected with EMTB—YFP—CIBN and mCh—Cry2 (red) were incubated with SPY650-tubulin (SPY650-tub) to visualize MTs; the cells were illuminated by blue light within a specified region (indicated by the dotted circle) for the indicated time period; scale bar, 10 µm.
The inventors then used light to control spastin-mediated MT disassembly in a spatially and temporally specific manner. dNSpastin3Q tagged with mCh-Cry2 was co-expressed with EMTB—YFP—CIBN in COS7 cells. MTs were labeled with SPY650-tubulin in these experiments.
FIGS. 6C and 6D show using light to disassemble MTs in a reversible and location-specific manner. In FIG. 6C, COS7 cells co-transfected with EMTB-YFP-CIBN and dNSpastin3Q-mCh—Cry2 were incubated with SPY650-tubulin to visualize MTs; the cells were illuminated by blue light as in FIG. 6A; scale bar, 10 µm. […] Data are shown as the mean ± S.E.M.

Assay [4] concerns the target EMTB-YFP-CIBN (Artificial Sequence). The experiment in a line: live-cell imaging in co-transfected COS7 cells, after blue light.
For assay [5] the target is unchanged. The experiment in a line: live-cell imaging in co-transfected COS7 cells, local blue light.
A further assay addresses T1, spastin (Mus musculus, UniProt Q9QYY8, K308Q/K309Q/K310Q).
T1 construct: expressed in transfected cells; host or cells: HeLa (CCL-2)
T1 sequence (Q9QYY8 with tags, fused parts or gaps K308Q/K309Q/K310Q): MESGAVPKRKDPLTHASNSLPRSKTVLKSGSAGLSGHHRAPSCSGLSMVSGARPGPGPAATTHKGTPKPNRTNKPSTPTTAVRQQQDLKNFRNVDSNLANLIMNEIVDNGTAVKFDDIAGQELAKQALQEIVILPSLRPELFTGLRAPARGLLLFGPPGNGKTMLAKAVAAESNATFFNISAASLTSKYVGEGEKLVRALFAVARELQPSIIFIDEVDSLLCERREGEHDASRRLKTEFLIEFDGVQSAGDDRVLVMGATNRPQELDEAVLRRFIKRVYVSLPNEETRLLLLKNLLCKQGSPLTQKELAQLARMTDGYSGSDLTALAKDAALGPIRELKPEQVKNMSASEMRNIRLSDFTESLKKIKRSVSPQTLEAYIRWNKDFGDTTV
The experiment in a line: Reversal of MT disruption by spastin inhibition and MT regrowth in HeLa cells. In kind it is cell-based. The note with it: regrowth in cytosol (acentrosome) after spastazoline. Here is the method:
FIGS. 2S to 2U show inhibition of spastin activity reverses MT disruption. In FIG. 2S, HeLa cells co-transfected with EMTB—CFP—FRB (black) and dNSpastin3Q-YFP-FKBP (green) were pre-treated with rapamycin for 28 min to induce acute MT disassembly; spastazoline (10 µM), a spastin inhibitor, was then added to the cultures to halt the MT disruption system; arrows indicate the centrosome-derived MTs; scale bar, 10 µm. […] Data (red) are shown as the mean ± SD. A Student’s t-test was performed to generate the indicated p-value.
Intriguingly, nascent MTs from the fragments derived from dNspastin3Q-mediated cleavage assembled at a polymerization rate of 0.92 ± 0.04 µm/sec, which was slightly slower than the regrowth rate of 1.17 ± 0.07 µm/sec for MTs from centrosomes (see FIG. 2U). […] In particular, microtubule filaments are composed of microtubule molecules. If they are only disassembled into microtubule molecules and the raw materials are still there, they would have the opportunity to quickly assemble them back. But if the microtubule molecules are degraded and the raw materials are gone, they can’t be quickly reassembled. In summary, rapid recruitment of dNSpastin3Q-YFP-FKBP onto MTs efficiently triggered MT disassembly in living cells upon dimerization induction.

Assay [6] has as its system ciliary axonemes and primary cilia in NIH3T3 cells. Nature of the assay: Disruption of primary cilia in serum-starved NIH3T3 cells (live-cell imaging). The note with it: G0 NIH3T3 cells, CFP-FRB-MAP4m, rapamycin 100 nM. The assay is classed as cell-based, mouse. The method, then: The procedures of cell culture and transfection are as follows. African green monkey kidney cell line COS7 (CRL-1651), cervical cancer cell line HeLa (CCL-2), human osteosarcoma cell line U2OS (HTB-96), human embryonic kidney cell line HEK293T (CRL-3216), and mouse embryonic fibroblasts NIH3T3 cells (CRL-1658) were maintained at 37° C., 5% CO2, and 95% humidity in Dulbecco’s modified Eagle’s medium (DMEM) supplemented with 10% fetal bovine serum (FBS), and penicillin and streptomycin (Corning). To induce ciliogenesis, NIH3T3 cells were serum starved for 24 hr. COS7 cells were transfected with plasmid DNAs by using TurboFect transfection reagents (Thermo Fisher). HeLa, U2OS, HEK293T, and NIH3T3 cells were transfected with FuGENE HD (Promega). Transfected cells were incubated for 24-48 hr prior to imaging and other experiments.
The procedures of live-cell imaging are as follows. Live transfected cells cultured on poly(d-lysine)-coated glass coverslips (Hecht Assistent) were treated with either 100 nM rapamycin for rapid induction of protein dimerization and translocation or MT-targeting agents (10 µM nocodazole or 500 µM colchicine) during imaging. Live-cell imaging was conducted on a Nikon T1 inverted fluorescence microscope (Nikon) with a 60× oil objective (Nikon), a Prime camera (Photometrics), and 37° C., 5% CO2 heat stage (Live Cell Instrument). […]

The subject of assay [7] is mitotic spindles and intercellular bridges in HeLa cells. Nature of the assay: Disruption of mitotic spindles and intercellular bridges in synchronized HeLa cells. In kind it is cell-based. The note with it: CFP-FRB-MAP4m, rapamycin 100 nM. Here is the method: The procedures of cell synchronization are as follows. Plasmid DNA (i.e., DNA construct) transfection was carried out 20-24 hr prior to cell cycle synchronization. For synchronization, HeLa cells were treated with 2 mM thymidine (Sigma) for 16-18 hr to induce arrest at G1/S phase and then were treated with 2.5 ng/ml RO3306 (a selective ATP-competitive inhibitor of CDK1)(Sigma) for 12 hr to induce arrest at G2/M phase. After being washed with warm DMEM, cells were incubated with DMEM and 10% FBS at 37° C., 5% CO2 for 30-60 min to enrich the population of metaphase and telophase cells.
FIGS. 5K to 5N show rapid disruption of mitotic spindles and intercellular bridges. In FIG. 5K, HeLa cells co-transfected with H2B—mCherry (H2B—mCh; a chromosome marker; red), CFP—FRB—MAP4m (a marker of mitotic spindles; blue), and dNSpastin3Q-YFP-FKBP (green) were synchronized in metaphase and treated with rapamycin (100 nM) to induce dNSpastin3Q-YFP-FKBP recruitment to mitotic spindles; scale bar, 10 µm. In FIG. 5L, HeLa cells co-transfected with H2B—mCherry (red), CFP—FRB—MAP4m (intercellular bridges; blue), and dNSpastin3Q-YFP-FKBP (green) were treated with rapamycin (100 nM) to induce dNSpastin3Q-YFP-FKBP recruitment to intercellular bridges; arrows indicate the intercellular bridges; scale bar, 10 µm. […] Data are shown as the mean ± S.E.M. Dotted lines indicate the cell boundaries.

The test system of assay [8] is centrosomes in HeLa cells. Nature of the assay: Effect of MT disruption treatment on PACT-labeled centrosomes in HeLa cells. The assay is classed as cell-based. Particulars: MT disruption treatment for 1 hr. The method, then:
In FIG. 5O, HeLa cells co-transfected with EMTB—CFP—FRB (blue), dNSpastin3Q-YFP-FKBP (green), and PACT-mCh (a centrosomal marker; red) were treated with rapamycin (100 nM) and imaged; dotted lines indicate the cell boundary; insets show higher-magnification images of the centrosome regions; scale bar, 10 µm. […] Data are shown as the mean ± S.E.M.

Where only a bound is given, the exact number is not on record here.

Sequence of EMTB-YFP-CIBN (Artificial Sequence) (chain, as listed by the source): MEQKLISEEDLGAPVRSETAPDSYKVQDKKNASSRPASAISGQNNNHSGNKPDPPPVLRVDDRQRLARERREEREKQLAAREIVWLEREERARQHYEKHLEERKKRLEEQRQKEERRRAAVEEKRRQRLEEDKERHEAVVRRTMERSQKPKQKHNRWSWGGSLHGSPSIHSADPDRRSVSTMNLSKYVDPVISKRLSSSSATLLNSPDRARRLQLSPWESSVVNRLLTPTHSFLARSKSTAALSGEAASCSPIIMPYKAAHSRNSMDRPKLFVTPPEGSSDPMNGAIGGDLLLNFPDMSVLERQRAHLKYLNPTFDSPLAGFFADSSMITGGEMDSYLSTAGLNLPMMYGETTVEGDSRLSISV
Sequence of MT-binding domain of ensconsin-cyan fluorescent protein-FKBP-rapamycin binding domain (EMTB-CFP-FRB) (Artificial Sequence) (chain, as listed by the source): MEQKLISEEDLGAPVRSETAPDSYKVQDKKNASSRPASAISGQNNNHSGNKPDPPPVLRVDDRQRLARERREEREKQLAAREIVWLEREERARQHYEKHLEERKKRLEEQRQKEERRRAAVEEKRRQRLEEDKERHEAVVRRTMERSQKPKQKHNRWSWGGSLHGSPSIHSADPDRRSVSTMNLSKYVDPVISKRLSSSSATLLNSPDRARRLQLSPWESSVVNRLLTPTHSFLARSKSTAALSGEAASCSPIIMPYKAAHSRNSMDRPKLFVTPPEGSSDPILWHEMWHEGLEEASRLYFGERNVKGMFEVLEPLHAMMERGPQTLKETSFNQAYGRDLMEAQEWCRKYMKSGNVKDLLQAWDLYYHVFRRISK

Take “dNSpastin-YFP-FKBP-C2 domain of Lactadherin (dNSpastin-YFP-FKBP-C2Lact) (enzyme)”: the half time of MT disruption (MT filament area) in assay [1] was 53.1 min. Further, in assay [2], the T½ of translocation is 55.4 s.

B1: Cry2 tagged with the red fluorescent protein mCherry (mCh-Cry2) (protein)
chain: MKMDKKTIVWFRRDLRIEDNPALAAAAHEGSVFPVFIWCPEEEGQFYPGRASRWWMKQSLAHLSQSLKALGSDLTLIKTHNTISAILDCIRVTGATKVVFNHLYDPVSLVRDHTVKEKLVERGISVQSYNGDLLYEPWEIYCEKGKPFTSFNSYWKKCLDMSIESVMLPPPWRLMPITAAAEAIWACSIEELGLENEAEKPSNALLTRAWSPGWSNADKLLNEFIEKQLIDYAKNSKKVVGNSTSLLSPYLHFGEISVRHVFQCARMKQIIWARDKNSEGEESADLFLRGIGLREYSRYICFNFPFTHEQSLLSHLRFFPWDADVDKFKAWRQGRTGYPLVDAGMRELRATGWMHNRIRVIVSSFAVKFLLLPWKWGMKYFWDTLLDADLECDILGWQYISGSIPDGHELDRLDNPALQGAKYDPEGEYIRQWLPELARLPTEWIHHPWDAPLTVLKASGVELGTNYAKPIVDIDTARELLAKAISRTREAQIMIGAA
For the molecule B1, the “T½ of translocation onto EMTB-YFP-CIBN-labeled MTs in illuminated regions” value in assay [3] (blue light on) came to 34.6 ± 7.58 s. In addition, the “T½ of dissociation from MTs to the cytosol” value in assay [3] (light off) worked out at 28.2 ± 4.88 s. Besides, the “light-induced MT disassembly” value in assay [3] (local blue light illumination, SPY650-tubulin) is “did not lead to MT disassembly”. The same molecule showed a T½ of dissociation from MTs when the light was off in assay [4] of 28.2 s. The T½ of translocation onto MTs under light in [5] was 34.6 s.

B2: dNSpastin3Q: truncated spastin with three residues mutated to three glutamines, SEQ ID NO:6; used as tagged fusions (protein)
chain: T1 sequence (Q9QYY8 with tags, fused parts or gaps K308Q/K309Q/K310Q)
modifications: dNSpastin3Q
notes: used as tagged fusions
Take B2: in the assay with spastin, the “polymerization rate of nascent MTs from fragments derived from cleavage” value was 0.92 ± 0.04 µm/sec. Further, the “time to disassembly of axonemes and primary cilia” value in assay [6] was not above 15 min. Besides, in assay [7], the “disruption of mitotic spindles and intercellular bridges” value is “quickly disrupted these MT-based structures”. Besides, the disruption of centrosomes result in [8] was “did not disrupt centrosomes”.

The record behind these values is patent US20230203471A1, “METHOD AND PLATFORM FOR DISRUPTING INTRACELLULAR MICROTUBULES” (National Tsing Hua University, priority 2021, published 2023).
